Test results published in publication PMC9300723.

Molecular target: F5M-σ^A1.1^(S2C), fluorescein-labelled σ1.1 domain of Pae σ^A (Pseudomonas aeruginosa)
Assay: fluorescence polarisation; 2 nM fluorescein-labelled σ1.1 domain, Pae RNAP core enzyme 0-4096 nM; 10 mM Tris-HCl pH 7.7, 100 mM NaCl, 1 mM DTT, 1% glycerol, 0.025% Tween-20; 10 min at room temperature

Work on “Pae RNAP core enzyme (from UniProt O52760 1-333; Q51561 1-1357; Q9HWC9 2-1399; B7V5M8 1-88) (complex)” yielded a Kd of 220 nM.
